Source: patent US20050089926A1, “Ligand sensing fluorescent acetylcholinesterase for detection of organophosphate activity” (priority 2002, published 2005)
“And” between values parts separate entries of the source, which are not always exact repeats. Equal values may be shown once. Read-outs that look alike come from different tables or passages of the source.

How the values were obtained:
[1] = tested on: wild type and mutant mouse AChEs; experiment: Acetylthiocholine hydrolysis kinetics (Ellman method); format: biochemical; settings: means ± S.D.
Description: Assay of Catalytic Activity—The spectrophotometric method of Ellman was used (25), and kinetic constants for acetylthiocholine hydrolysis were determined by fitting the observed rates as described (26). Titration of active sites with known concentrations of the irreversible phosphorylating agent, MEPQ, was accomplished by the method of Levy and Ashani (27).

[2] = biological target: T1, acrylodan-labeled E81C and E84C (Mus musculus, UniProt P21836, E115C); format: binding; settings: acrylodan-conjugated E84C
T1 construct: made in house; host or cells: HEK293
Description: (§1) TFK^+ binding to cysteine-substituted enzymes, both free and modified with acrylodan, was also examined (Table II). For E81C and E84C, the association rate constants (kon) for TFK^+ were obtained from measurements of enzyme activity. […] For acrylodan-labeled mutants, kon was measured from the time-dependent decrease of fluorescence signal (FIG. 3).

[3] = tested on: mouse AChE; experiment: TFK+ inhibition, association rate from residual enzyme activity; format: biochemical; settings: for TFK+ kon: unlabeled enzyme, from measurements of enzyme activity
Description: Trifluoroacetophenone Inhibition—Picomolar amounts of enzyme in 0.01% bovine serum albumin in 0.1 M sodium phosphate buffer, pH 7.0, were reacted with TFK^+ in the absence of substrate. Inhibition was monitored by measuring residual enzyme activity by removal of aliquots during the course of the reaction. Bimolecular rate constants of inhibition were determined by nonlinear fit of the data (28). ΔF=ΔFmax(Et+It+Kd−/(Et+It+Kd)^2−4 EtIt∫^0.5)(2Et)^−1 (Eq. 1)
as §1

[4] = tested on: E81C and E84C AChEs; experiment: BW284c51 binding, stopped-flow tryptophan fluorescence quenching (koff/kon); parameters: species or system mouse; settings: unlabeled mutant
Description: (§2) Association and dissociation rate constants of edrophonium and […] with E81C and E84C AChEs were determined from changes in the tryptophan fluorescence using a stopped-flow spectrophotometer as described previously (29). Time-dependent decreases in tryptophan fluorescence were observed upon excitation at 276 nm by means of a 305 nm emission cut-off filter.

[5] = biological target: T2, acrylodan-labeled mouse AChE mutants (Mus musculus, UniProt P21836, E115C); settings: edrophonium, tacrine or huperzine bound
T2 construct: made in house; host or cells: HEK293

[6] = tested on: E81C and E84C AChEs; experiment: Edrophonium binding, stopped-flow tryptophan fluorescence quenching (koff/kon); parameters: species or system mouse; settings: unlabeled mutant
Description: as §2

[7] = tested on: wild type and mutant mouse AChEs; settings: data from Boyd et al. 2000, cited from earlier work; for Km / kcat: acetylthiocholine hydrolysis; for b: relative catalytic turnover of the ternary complex; for KSS: substrate inhibition or activation constant

| Molecule | Km ([1]; acetylthiocholine hydrolysis) [µM] | kcat ([1]; acetylthiocholine hydrolysis) | b ([1]; relative catalytic turnover of the ternary complex) | KSS ([1]; substrate inhibition or activation constant) [mM] | reduction of kon of TFK+ by acrylodan conjugation compared with unconjugated E84C [2] [fold] | TFK+ kon [3] | TFK+ kon ratio to wild type (head is formula MATH:1) ([3]; unlabeled mutant) | BW284c51 Kd ratio to wild type (head is formula MATH:3) [4] | bathochromic shift upon inhibitor binding [5] [nm] | Edrophonium Kd ratio to wild type (head is formula MATH:2) [6] | Km [7] [µM] | kcat [7] | b [7] | KSS [7] [mM] |
| --- | --- | --- | --- | --- | --- | --- | --- | --- | --- | --- | --- | --- | --- | --- |
| E84C (protein, UniProt P21836 32-614, looked up, variant E84C) Acetylcholinesterase: EGREDPQLLVRVRGGQLRGIRLKAPGGPVSAFLGIPFAEPPVGSRRFMPPEPKRPWSGVLDATTFQNVCYQYVDTLYPGFEGTCMWNPNRELSEDCLYLNVWTPYPRPASPTPVLIWIYGGGFYSGAASLDVYDGRFLAQVEGAVLVSMNYRVGTFGFLALPGSREAPGNVGLLDQRLALQWVQENIAAFGGDPMSVTLFGESAGAASVGMHILSLPSRSLFHRAVLQSGTPNGPWATVSAGEARRRATLLARLVGCPPGGAGGNDTELIACLRTRPAQDLVDHEWHVLPQESIFRFSFVPVVDGDFLSDTPEALINTGDFQDLQVLVGVVKDEGSYFLVYGVPGFSKDNESLISRAQFLAGVRIGVPQASDLAAEAVVLHYTDWLHPEDPTHLRDAMSAVVGDHNVVCPVAQLAGRLAAQGARVYAYIFEHRASTLTWPLWMGVPHGYEIEFIFGLPLDPSLNYTTEERIFAQRLMKYWTNFARTGDPNDPRDSKSPQWPPYTTAAQQYVSLNLKPLEVRRGLRAQTCAFWNRFLPKLLSATDTLDEAERQWKAEFHRWSSYMVHWKNQFDHYSKQERCSDL | 190 ± 9 | 1.9 ± 0.4 10^5/min | 0.2 ± 0.05 | 26 ± 2 | 7 | 93 10^9M^−1min^−1 | 1.6 | 18 | 33 | 2 and 2.2 | – | – | – | – |
| H287C (protein, UniProt P21836 32-614, looked up, variant H287C) Acetylcholinesterase: EGREDPQLLVRVRGGQLRGIRLKAPGGPVSAFLGIPFAEPPVGSRRFMPPEPKRPWSGVLDATTFQNVCYQYVDTLYPGFEGTEMWNPNRELSEDCLYLNVWTPYPRPASPTPVLIWIYGGGFYSGAASLDVYDGRFLAQVEGAVLVSMNYRVGTFGFLALPGSREAPGNVGLLDQRLALQWVQENIAAFGGDPMSVTLFGESAGAASVGMHILSLPSRSLFHRAVLQSGTPNGPWATVSAGEARRRATLLARLVGCPPGGAGGNDTELIACLRTRPAQDLVDHEWCVLPQESIFRFSFVPVVDGDFLSDTPEALINTGDFQDLQVLVGVVKDEGSYFLVYGVPGFSKDNESLISRAQFLAGVRIGVPQASDLAAEAVVLHYTDWLHPEDPTHLRDAMSAVVGDHNVVCPVAQLAGRLAAQGARVYAYIFEHRASTLTWPLWMGVPHGYEIEFIFGLPLDPSLNYTTEERIFAQRLMKYWTNFARTGDPNDPRDSKSPQWPPYTTAAQQYVSLNLKPLEVRRGLRAQTCAFWNRFLPKLLSATDTLDEAERQWKAEFHRWSSYMVHWKNQFDHYSKQERCSDL | – | – | – | – | – | – | – | – | – | – | 58 ± 7 | 1.8 ± 0.2 10^5/min | 0.2 ± 0.06 | 12 ± 6 |
| Wild Type (protein, UniProt P21836 32-614, looked up) Acetylcholinesterase: EGREDPQLLVRVRGGQLRGIRLKAPGGPVSAFLGIPFAEPPVGSRRFMPPEPKRPWSGVLDATTFQNVCYQYVDTLYPGFEGTEMWNPNRELSEDCLYLNVWTPYPRPASPTPVLIWIYGGGFYSGAASLDVYDGRFLAQVEGAVLVSMNYRVGTFGFLALPGSREAPGNVGLLDQRLALQWVQENIAAFGGDPMSVTLFGESAGAASVGMHILSLPSRSLFHRAVLQSGTPNGPWATVSAGEARRRATLLARLVGCPPGGAGGNDTELIACLRTRPAQDLVDHEWHVLPQESIFRFSFVPVVDGDFLSDTPEALINTGDFQDLQVLVGVVKDEGSYFLVYGVPGFSKDNESLISRAQFLAGVRIGVPQASDLAAEAVVLHYTDWLHPEDPTHLRDAMSAVVGDHNVVCPVAQLAGRLAAQGARVYAYIFEHRASTLTWPLWMGVPHGYEIEFIFGLPLDPSLNYTTEERIFAQRLMKYWTNFARTGDPNDPRDSKSPQWPPYTTAAQQYVSLNLKPLEVRRGLRAQTCAFWNRFLPKLLSATDTLDEAERQWKAEFHRWSSYMVHWKNQFDHYSKQERCSDL | – | – | – | – | – | 150 10^9M^−1min^−1 | – | – | – | – | 54 ± 16 | 1.6 ± 0.4 10^5/min | 0.2 ± 0.07 | 14 ± 5 |
| A262C (protein, UniProt P21836 32-614, looked up, variant A262C) Acetylcholinesterase: EGREDPQLLVRVRGGQLRGIRLKAPGGPVSAFLGIPFAEPPVGSRRFMPPEPKRPWSGVLDATTFQNVCYQYVDTLYPGFEGTEMWNPNRELSEDCLYLNVWTPYPRPASPTPVLIWIYGGGFYSGAASLDVYDGRFLAQVEGAVLVSMNYRVGTFGFLALPGSREAPGNVGLLDQRLALQWVQENIAAFGGDPMSVTLFGESAGAASVGMHILSLPSRSLFHRAVLQSGTPNGPWATVSAGEARRRATLLARLVGCPPGGCGGNDTELIACLRTRPAQDLVDHEWHVLPQESIFRFSFVPVVDGDFLSDTPEALINTGDFQDLQVLVGVVKDEGSYFLVYGVPGFSKDNESLISRAQFLAGVRIGVPQASDLAAEAVVLHYTDWLHPEDPTHLRDAMSAVVGDHNVVCPVAQLAGRLAAQGARVYAYIFEHRASTLTWPLWMGVPHGYEIEFIFGLPLDPSLNYTTEERIFAQRLMKYWTNFARTGDPNDPRDSKSPQWPPYTTAAQQYVSLNLKPLEVRRGLRAQTCAFWNRFLPKLLSATDTLDEAERQWKAEFHRWSSYMVHWKNQFDHYSKQERCSDL | – | – | – | – | – | – | – | – | – | – | 59 ± 4 | 1.6 ± 0.1 10^5/min | 0.2 ± 0.04 | 11 ± 3 |
